Consider two molecules from patent CN114891108A (SHANGHAI XUNLU BIO TECH CO LTD, dated 2022).

Experiment [1] has as its target T1, BCMA on cells (293CT-BCMA, MM.1S) (UniProt Q02223 1-184, limits assumed).
T1 construct: whole, on cells; also called 细胞膜表面天然状态的BCMA
T1 sequence (looked up): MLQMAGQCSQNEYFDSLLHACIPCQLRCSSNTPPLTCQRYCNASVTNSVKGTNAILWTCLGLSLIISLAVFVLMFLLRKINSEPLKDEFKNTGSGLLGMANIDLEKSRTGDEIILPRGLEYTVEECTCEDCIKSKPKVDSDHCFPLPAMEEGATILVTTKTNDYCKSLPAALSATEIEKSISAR
Kind of experiment: phage flow cytometry on 293CT-BCMA cells. (Flow cytometry measures light scatter and fluorescence of single cells or particles in a stream.)

The target of experiment [2] is T2, Biotinylated Human BCMA/TNFRSF17 Protein, His,Avitag (human, UniProt Q02223 1-54, biotinylated (Avitag)).
T2 construct: Bought recombinant protein; also called Human BCMA-his-Bio; Human-BCMA-his-Bio
T2 sequence (looked up): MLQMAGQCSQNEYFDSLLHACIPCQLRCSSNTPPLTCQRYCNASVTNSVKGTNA
Kind of experiment: phage ELISA. (In general: An ELISA detects its analyte on a solid surface through an enzyme-linked reagent.)

The target in experiment [3] is T3, Mouse BCMA/TNFRSF17 Protein, His Tag (mouse, UniProt O88472 1-49).
T3 construct: Bought recombinant protein; also called Mouse-BCMA-his; 鼠的BCMA蛋白
T3 chain (looked up): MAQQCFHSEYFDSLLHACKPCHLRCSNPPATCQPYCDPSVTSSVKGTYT
Kind of experiment: phage ELISA.

Experiment [4] addresses T1, BCMA on cells (293CT-BCMA, MM.1S). Kind of experiment: flow cytometry titration on 293CT-BCMA and MM.1S cells.

B1: Clone 41 (scFv)
scFv: QSVLTQPPSVSGAPGQTVTISCTGSSSNIGAGYIVNWYQQLPGTAPKLLIYFTGNRPSGVPGRFSGSRSGTSASLAITRLQAEDEADYYCQSFDRSLGGYVFGTATKVTVLGSRGGGGSGGGGSGGGGSLEMAQLQLQESGPGLVKPSETLSLTCTVSGGSISSSSYYWGWIRQPPGKGLEWIGSISYSGSTYYNPSLKSRVTISVDTSKNQFSLKLSSVTAADTAVYYCARDRGDTILDVWGQGTMVTVSS
notes: The fusion to the phage coat protein is not described; also called 噬菌体单克隆Clone 41; Clone 41单链抗体
On to B1, for which the binding result in experiment [1] is on record as “binds”; in experiment [2], “binds”; in experiment [3] it was “no binding”.

B2: mAb 41 (Fc fusion)
chain: B1 scFv
notes: also called Clone 41 IgG; 抗BCMA IgG (Clone 41); not shown: Human IgG4 Fc
B2: the binding result in experiment [4] was “binds”.
